Data on 1 substance can be found in publication doi:10.1101/239830.

Common to all, as to assay: fluorescence polarisation
(In fluorescence polarisation assays a small probe gives low polarisation when free and higher when bound to something large.)

In test [1] the target is V1rb2-1 peptide derived from vomeronasal receptor V1RB2.
Test [2] has as its target V1rb2-2 peptide derived from vomeronasal receptor V1RB2.
For test [3], the target named is OR-1 peptide derived from olfactory receptor OLFR1507.

As a reminder, the Kd is the free concentration of one partner at which half of the binding sites on the other are occupied at equilibrium, for simple one-to-one binding. A low value points to a tighter complex. Consider “PERK LD as used in the fluorescence anisotropy assays (domain or fragment)”, for which the Kd turned out to be 6.6 µM in test [1], 6.1 µM in test [2] and 250 µM in test [3].
